# Reference: patent US20150225755A1, “Ergothioneine Production Through Metabolic Engineering” (priority 2012, published 2015)
# T1: NcEgt-1 (Neurospora crassa, UniProt Q7RX33)
# T1 sequence (Q7RX33 whole entry, looked up): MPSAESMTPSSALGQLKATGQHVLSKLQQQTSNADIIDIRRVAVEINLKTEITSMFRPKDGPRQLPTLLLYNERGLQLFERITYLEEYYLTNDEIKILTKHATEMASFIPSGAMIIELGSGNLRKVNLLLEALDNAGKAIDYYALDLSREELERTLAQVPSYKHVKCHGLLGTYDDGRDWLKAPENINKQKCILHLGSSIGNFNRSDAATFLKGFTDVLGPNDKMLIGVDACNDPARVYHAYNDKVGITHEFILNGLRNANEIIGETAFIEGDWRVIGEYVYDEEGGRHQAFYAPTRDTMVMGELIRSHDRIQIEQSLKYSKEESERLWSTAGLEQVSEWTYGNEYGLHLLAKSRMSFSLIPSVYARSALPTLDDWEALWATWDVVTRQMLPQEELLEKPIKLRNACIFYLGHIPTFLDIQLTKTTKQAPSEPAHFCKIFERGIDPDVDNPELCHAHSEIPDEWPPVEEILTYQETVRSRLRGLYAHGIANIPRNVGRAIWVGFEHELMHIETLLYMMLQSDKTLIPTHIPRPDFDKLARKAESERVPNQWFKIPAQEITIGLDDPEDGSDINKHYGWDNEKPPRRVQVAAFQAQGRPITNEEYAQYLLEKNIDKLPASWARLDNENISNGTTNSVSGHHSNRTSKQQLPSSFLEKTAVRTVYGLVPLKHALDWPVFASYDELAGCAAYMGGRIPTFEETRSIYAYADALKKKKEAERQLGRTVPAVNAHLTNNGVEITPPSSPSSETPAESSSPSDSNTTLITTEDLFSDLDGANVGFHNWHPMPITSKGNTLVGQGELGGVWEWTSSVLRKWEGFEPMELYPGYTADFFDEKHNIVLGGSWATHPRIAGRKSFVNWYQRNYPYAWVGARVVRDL
# B1: NcEgt-1: enzyme from Neurospora crassa that catalyzes oxidative coupling of hercynine and cysteine (protein)
# chain: MPSAESMTPSSALGQLKATGQHVLSKLQQQTSNADIIDIRRVAVEINLKTEITSMFRPKDGPRQLPTLLLYNERGLQLFERITYLEEYYLTNDEIKILTKHATEMASFIPSGAMIIELGSGNLRKVNLLLEALDNAGKAIDYYALDLSREELERTLAQVPSYKHVKCHGLLGTYDDGRDWLKAPENINKQKCILHLGSSIDKVGITHEFILNGLRNANEIIGETAFIEGDWRVIGEYVYDEEGGRHQAFYAPTRDTMVMGELIRSHDRIQIEQSLKYSKEESERLWSTAGLEQVSEWTYGNEYGLHLLAKSRMSFSLIPSVYARSALPTLDDWEALWATWDVVTRQMLPQEELLEKPIKLRNACIFYLGHIPTFLDIQLTKTTKQAPSEPAHFCKIFERGIDPDVDNPELCHAHSEIPDEWPPVEEILTYQETVRSRLRGLYAHGIANIPRNVGRAIWVGFEHELMHIETLLYMMLQSDKTLIPTHIPRPDFDKLARKAESERVPNQWFKIPAQEITIGLDDPEDGSDINKHYGWDNEKPPRRVQVAAFQAQGRPITNEEYAQYLLEKNIDKLPASWARLDNENISNGTTNSVSGHHSNRTSKQQLPSSFLEKTAVRTVYGLVPLKHALDWPVFASYDELAGCAAYMGGRIPTFEETRSIYAYADALKKKKEAERQLGRTVPAVNAHLTNNGVEITPPSSPSSETPAESSSPSDSNTTLITTEDLFSDLDGANVGFHNWHPMPITSKGNTLVGQGELGGVWEWTSSVLRKWEGFEPMELYPGYTADFFDEKHNIVLGGSWATHPRIAGRKSFVNWYQRNYPYAWVGARVVRDL
# modifications: Neurospora crassa OR74A
# notes: enzyme from Neurospora crassa that catalyzes oxidative coupling of hercynine and cysteine
# Assays:
# EgtB = EgtB (Mycolicibacterium smegmatis, UniProt A0R5N0); assay: EgtB activity using hercynine (2) and Cys as substrates; type: biochemical, Mycobacterium smegmatis
# Description: (§1) Two different assays were developed for both EgtB and OvoA catalysis (FIG. 3). Both EgtB and OvoA are proposed to be oxidases,^[9-10] which catalyze the oxidative coupling between His and Cys to form the C—S bond. At the same time, sulfur is oxidized to sulfoxide. The overall process is a four-electron oxidation process (FIG. 1) similar to the case of the isopenicillin N synthase.^[12] In the initial report by Seebeck, they monitored the reaction by monitoring the absorption changes at 260 nm because the oxidative products (3 or 6, FIG. 1) have absorptions in this region. However, it is not very sensitive. Oxygen is needed because there was no detectable product formation under anaerobic conditions. Based on this feature, we developed the EgtB and OvoA activity assays by monitoring the oxygen consumption rate (FIG. 3-I-B) using the NeoFoxy oxygen electrode (FIG. 3-I-A). This assay (FIG. 3-I-B) was used as the routine assay to optimize the conditions for EgtB and OvoA activities.
# According to the initial reports from Seebeck,^[9-10] EgtB and OvoA distinguish themselves from each other by both their substrate preferences and their product C—S bond regio-selectivity (FIG. 1). The C—S bond in ergothioneine (5) is located at the histidine ε-carbon, while for ovothiol, the C—S bond is located at the histidine δ-carbon (8). Their substrate preferences are also different. […]
# OvoA = OvoA (Erwinia tasmaniensis, UniProt B2VFD8); assay: OvoA activity, oxygen consumption assay / kinetic analysis; type: biochemical; conditions: air-saturated HEPES buffer
# Description: as §1
# (§2) For oxygenase or oxidase-catalyzed reaction, potential problems include the presence of side-reactions, non-productive oxygen consumption, or oxidative inactivation of enzyme itself. Multiple activity assays will provide useful information to analyze those situations. To achieve this goal, besides the oxygen consumption assay, we have also developed a ^1H-NMR assay to directly monitor the product formation (FIG. 3-II). In ^1H-NMR, the chemical shifts of the imidazole H-atoms in both the products (3 and 6, FIG. 3-II) and the substrates (1 and 2) are well-separated from the rest of the reaction mixture. Thus, the reaction mixture can be analyzed routinely without the need of a product separation. In FIG. 3-II-B (OvoA catalysis), the signals with chemical shifts at 6.93 ppm and 7.70 ppm are assigned to the two histidine imidazole H-atoms. The signal at 7.83 ppm is from the imidazole H-atom of the oxidative coupling product 6. While for the oxidative product 3 (EgtB catalysis), its imidazole H-atom has a chemical shift of 7.10 ppm (FIG. 3-II-B). […]
# N[C@@H](CS)C(=O)O = assay: as above; type: biochemical, Erwinia tasmaniensis; conditions: other: air-saturated HEPES buffer; coupling with hercynine (2)
# Description: as §1, §2
# [1] = tested on: C[N+](C)(C)[C@@H](Cc1cnc[nH]1)C(=O)[O-]; assay: as above; type: biochemical, Erwinia tasmaniensis; conditions: other: air-saturated HEPES buffer; coupling with Cys
# Description: as §1, §2
# NcEgt-1 = molecular target: T1, NcEgt-1; assay: NcEgt-1 catalysed oxidative coupling of hercynine (2) and Cys to form 4; type: biochemical
# Description: In the above section, we have successfully solved the EgtE problems, which enable ergothioneine production through metabolic engineering. However, the original ergothioneine biosynthetic pathway (FIG. 1A) is not efficient. To solve this problem, we initiated the search for enzymes that can oxidatively couples hercynine (2) and Cys directly as outlined in FIG. 2. Two of such enzymes (OvoA in FIG. 1B and NcEgt-1 from Neurospora crassa^[13]) have been identified by a combination of bioinformatics analysis and activity analysis using oxygen and ^1H-NMR assays.
# Based on this exciting discovery, we have also examined another protein NcEgt-lfrom Neurospora crassa^[13].
molecule,measurement,setting,value
"N[C@@H](CS)C(=O)O [Cys, cysteine]",recognition as substrate by EgtB,EgtB,cannot recognize Cys as the substrate
C[N+](C)(C)[C@@H](Cc1cnc[nH]1)C(=O)[O-] [hercynine],kcat for the oxidative coupling between Cys and hercynine (2),OvoA,4.5 ± 0.083 s⁻¹
OvoA (Erwinia tasmaniensis Et1/99),Km,N[C@@H](CS)C(=O)O,3190 ± 410 µM
same,Km,[1],395 ± 30 µM
B1,activity of 2→4 conversion compared with OvoA,NcEgt-1,same order of magnitude as OvoA
